In the supplement of paper PMC7125110:
± gives the standard error. Fewer inactive variants are shown than the library holds.

B1: glmS ribozyme (parent)
chain: AUAAAAGCGCCAGAACUACAGAAAUGUAGUUGACGAGGAGGAGGUUUAUCGAAUUUUCGGCGGAUGCCUCCAAA

Variants of: B1
Assay: self-cleavage kobs at 2500 uM GlcN6P; higher = faster cleavage; RNA array
Details: with glucosamine-6-phosphate
Outline: (§1)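 kcat and KM were obtained from weighted Michaelis–Menten fits across concentrations of kobs values. Those came from one- or two-exponential decay fits to per-tile medians normalised to baseline and to non-cleaving reference variants. The variants were barcoded ribozymes transcribed in situ by E. coli RNA polymerase on sequenced MiSeq chips and tracked through a hybridised Cy3 probe at 37 °C, with 40 μM to 10 mM glucosamine-6-phosphate in HEPES/KCl/Mg(OAc)2 buffer flowed in.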

Point of comparison: A15U U30C U31A, “self-cleavage kobs at 2500 uM GlcN6P” value 0.0213 ± 0.0088 s⁻¹. Against it:
- G38C U46G C68G — lower, < 1e-05 s⁻¹
- G40U G44A U55C C67U — lower, < 1e-05 s⁻¹
- G32A U69C — 110-fold lower, 0.000191 ± 7.8e-05 s⁻¹
- A36G G41A C67U — lower, < 1e-05 s⁻¹
- G13U A53C — 210-fold lower, 9.93e-05 ± 1.9e-05 s⁻¹
- G35C A39U G59A — lower, < 1e-05 s⁻¹
- C10A G29A A33G A48U — lower, < 1e-05 s⁻¹
- C50G C58A G66A — 180-fold lower, 0.000121 ± 4.3e-05 s⁻¹
- C11U U31C G41U A64G C70A — 19-fold lower, 0.0011 ± 0.0003 s⁻¹
- A6U U31G G41U — lower, < 1e-05 s⁻¹
- C11A A14G G29U — 360-fold lower, 5.93e-05 ± 2.7e-05 s⁻¹
- C34U G60A C68U — lower, < 1e-05 s⁻¹
- C16U C34G C50G — 180-fold lower, 0.00012 ± 5e-05 s⁻¹
- G32C C58U U65G — lower, < 1e-05 s⁻¹
- G38U U45A C71A — lower, < 1e-05 s⁻¹
- A14G G60U G66A — lower, < 1e-05 s⁻¹
- U30G G35A G43C — lower, < 1e-05 s⁻¹
- G29U G32C U56A — 290-fold lower, 7.28e-05 ± 1.4e-05 s⁻¹
- U30A C50A C68U — 430-fold lower, 4.96e-05 ± 2.3e-05 s⁻¹
- A14G A15U U46C — 13-fold lower, 0.00169 ± 0.00048 s⁻¹
- G9C A42U G44U — lower, < 1e-05 s⁻¹
- G7C A14C G35C U57G — lower, < 1e-05 s⁻¹
- C8G A39U C71A — lower, < 1e-05 s⁻¹
- U54G C61U C70U — 360-fold lower, 5.89e-05 ± 1.4e-05 s⁻¹
- A14C G40U A53G — 66-fold lower, 0.000325 ± 5.5e-05 s⁻¹
- G37A C50G U54C — 170-fold lower, 0.000123 ± 4.8e-05 s⁻¹
- U30C G41U A42C — lower, < 1e-05 s⁻¹
- A6G A12C U55C C67U — lower, < 1e-05 s⁻¹
- C16A A39G U69G — 180-fold lower, 0.000118 ± 3.8e-05 s⁻¹
- G13U A36U A53C — lower, < 1e-05 s⁻¹
- A6G G40A G41C — lower, < 1e-05 s⁻¹
- G29A U57G C70G — 170-fold lower, 0.000123 ± 5e-05 s⁻¹
- G32C U65G C68G — lower, < 1e-05 s⁻¹
- G29U C58G C71A — 180-fold lower, 0.000118 ± 3.2e-05 s⁻¹
- A36C G43C C50G C68A — lower, < 1e-05 s⁻¹
- C16U G41A C67U — lower, < 1e-05 s⁻¹
- U31C C34U U69C — lower, < 1e-05 s⁻¹
- U30A G32C A39G — 230-fold lower, 9.38e-05 ± 3.4e-05 s⁻¹
- A14U G35C U65G G66U U69G — lower, < 1e-05 s⁻¹
- A12C A39G U49C — lower, < 1e-05 s⁻¹
- C16A A36C A42C U55C U56A U57G C58U C71G — lower, < 1e-05 s⁻¹
- C8U U46G C61U — lower, < 1e-05 s⁻¹
- G40U A53G U65C — 430-fold lower, 4.92e-05 ± 1.4e-05 s⁻¹
- A33U G43U U65C — lower, < 1e-05 s⁻¹
- A12G G35U C67A — lower, < 1e-05 s⁻¹
- A39U A42C U45G — 35-fold lower, 0.000613 ± 0.00019 s⁻¹
- G29U A64G C67G — 350-fold lower, 6.02e-05 ± 1.3e-05 s⁻¹
- A14G U55G G66U — 12-fold lower, 0.00182 ± 0.00038 s⁻¹
- A52U U57A C67U — 48-fold lower, 0.000441 ± 9.6e-05 s⁻¹
- C10G A39G G66A C67U C71G — 300-fold lower, 7e-05 ± 3.1e-05 s⁻¹
- G7U A42C A64U G66U — lower, < 1e-05 s⁻¹
- G13U A33G U45C G63A — lower, < 1e-05 s⁻¹
- C16U C50G U55C — 300-fold lower, 7.17e-05 ± 2.1e-05 s⁻¹
- C10A C11A G51U A52U — lower, < 1e-05 s⁻¹
- A33G G44A U49G — lower, < 1e-05 s⁻¹
- A52U U56A C58G — lower, < 1e-05 s⁻¹
- G37A G40A U56A — 200-fold lower, 0.000109 ± 1.8e-05 s⁻¹
- A6U U56A G63U — lower, < 1e-05 s⁻¹
- G13U G43U C61G — lower, < 1e-05 s⁻¹
- C8U A14U G32U G41C C67U — lower, < 1e-05 s⁻¹
- A33G A42U C70U — lower, < 1e-05 s⁻¹
- A39G U55G A64G — 2.9-fold lower, 0.00731 ± 0.0025 s⁻¹
- A33G A36G A52U — lower, < 1e-05 s⁻¹
- G29U U47G C50G G63C — 160-fold lower, 0.000136 ± 5.4e-05 s⁻¹
- G9U A12C U30C — lower, < 1e-05 s⁻¹
- G9U U31C G43C C67U — lower, < 1e-05 s⁻¹
- A42U U55A G60U G63C — lower, < 1e-05 s⁻¹
- C11G U55A C61A U69A C71G — 75-fold lower, 0.000284 ± 8.5e-05 s⁻¹
- C16A A33U A52U — lower, < 1e-05 s⁻¹
- C16G G43A A48U — lower, < 1e-05 s⁻¹
- U31C U56G C67A — 310-fold lower, 6.88e-05 ± 1.8e-05 s⁻¹
- G32C G35C U56C — lower, < 1e-05 s⁻¹
- G7C A14U G32U A36G G43C — lower, < 1e-05 s⁻¹
- A6G G32U U45G — lower, < 1e-05 s⁻¹
- A14U G29U C50G C68U — 140-fold lower, 0.000156 ± 3.8e-05 s⁻¹
- G9A C10U U31C G44A — lower, < 1e-05 s⁻¹
- G7U A53G U57A — lower, < 1e-05 s⁻¹
- G9C G37U C58U G62U A64U C70G — lower, < 1e-05 s⁻¹
- A6G A14U U54A — 180-fold lower, 0.000117 ± 2.9e-05 s⁻¹
- C11G G35C U49G — lower, < 1e-05 s⁻¹

Variants of: B1
Assay: self-cleavage kobs at 10000 uM GlcN6P; higher = faster cleavage; RNA array
Details: with glucosamine-6-phosphate
Outline: as §1

Point of comparison: A14G U55G G66U, “self-cleavage kobs at 10000 uM GlcN6P” value 0.00253 ± 0.00062 s⁻¹. Against it:
- G32A U69C — 3.5-fold lower, 0.000717 ± 0.00016 s⁻¹
- A14C G40U A53G — 4.3-fold lower, 0.000591 ± 0.0001 s⁻¹
- G13U A36U A53C — lower, < 1e-05 s⁻¹
- A52U U57A C67U — 2.8-fold lower, 0.000894 ± 0.0002 s⁻¹
- A33G A36G A52U — lower, < 1e-05 s⁻¹
- C11G G35C U49G — lower, < 1e-05 s⁻¹
